T1: hAng-1 (human, UniProt Q15389 20-498, limits assumed)
T1 construct: Used in 'the same experiment' as hAng-2 C-His in SPR
T1 sequence (looked up): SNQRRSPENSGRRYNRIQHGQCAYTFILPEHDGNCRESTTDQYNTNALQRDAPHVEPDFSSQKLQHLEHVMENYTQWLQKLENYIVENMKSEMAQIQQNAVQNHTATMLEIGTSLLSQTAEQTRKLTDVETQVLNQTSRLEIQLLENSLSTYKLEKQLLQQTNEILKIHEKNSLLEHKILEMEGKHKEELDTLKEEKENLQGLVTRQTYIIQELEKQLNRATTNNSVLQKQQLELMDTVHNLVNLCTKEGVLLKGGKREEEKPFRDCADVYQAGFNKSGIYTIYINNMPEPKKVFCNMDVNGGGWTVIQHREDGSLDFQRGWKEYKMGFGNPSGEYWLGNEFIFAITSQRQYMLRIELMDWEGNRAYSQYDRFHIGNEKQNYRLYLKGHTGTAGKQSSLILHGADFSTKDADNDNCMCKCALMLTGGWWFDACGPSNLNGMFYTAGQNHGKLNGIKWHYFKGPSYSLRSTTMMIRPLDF

B1: SAIT-ANG-2-AB-m8D3 (antibody, V domains shown)
VH: EVQLQQSGPELVKPGDSVKMSCKASGYTFTDYYMKWVRQSHGKSLQWVGEINPKNGDTFYNQIFKGKATLTVDKSSSTAYMQLTSLTSEDSAVYYCTRENDYDVGFFDYWGQGTSVTVSS
VL: TIVMTQTPKFLLVSAGDRITITCKASQSVSNDVAWYQQKPGQSPKLLIYYASNRYPGVPDRFTGSGYGTDFTFTISTVQAEDLAVYFCQQDYTSPWTFGGGTELEIK
notes: Mouse hybridoma monoclonal antibody purified on protein G
B2: SAIT-ANG-2-AB-m1B6 (antibody, V domains shown)
VH: QIQLVQSGPELKKPGETVKISCKASGYTFTNYGMNWVKQAPGKGLKWMGWINTYTGEPTYADDFKGRFAFSLETSASTAYLQINNLKNEDTATYFCARDHDGYLMDYWGQGTSVTVSS
VL: DIQMTQTTSSLSASLGDRVTISCSTSQGISNYLNWYQQKPDGTVKLLIFYTSSLHSGVPSRFSGSGSGTDYSLTISNLEPEDIATYYCQQYSKLPYTFGGGTKLEIK
notes: Mouse hybridoma monoclonal antibody purified on protein G; also called SAIT-ANG-m2-AB-1B6
B3: SAIT-ANG-2-AB-m3E2 (antibody, V domains shown)
VH: EVQLQQSGAELVKPGASVKLSCTASGFNIKDPYIHWVKQRPEQGLEWIGRIDPANGNTKYDPKFQGKATITADTSSNTAYLQLSSLTSEDTAVYYCVRRWDGGGFDYWGQGTSVTVSS
VL: DIQMTQTTSSLSASLGDRVTISCRASQDISNYLNWYQQKPDGTVKLLIYYTSRLHSGVPSRFSGSGSGTDYSLTITNLEQEDIATYFCQQGNTLPWTFGGGTKLEIK
notes: as for B1

Each binder was assayed against T1, hAng-1 (assay: SPR, BIAcore T100, antigen captured on chip, antibody from 100 nM in two-fold dilutions).
Protocol: An anti-His antibody was immobilized to the degree of 8,000 response units (RU) on a CM5 sensor chip (GE Healthcare) using a pH 5.0 acetate solution and an amine coupling kit (GE Healthcare). Recombinant hAng-2 protein (C-His, R&D Systems) was flowed into this immobilized antibody at a concentration of 6 μg/ml to capture the antibody at 100˜200 RU. In this regard, the antibodies obtained in Reference Example 2.2.2 were serially diluted by half each time starting from 100 nM before application. […] Kd values were calculated from the measurements. The same experiment was conducted with hAng-1.

Binding result, no binding:
B1
B2
B3

— patent US20140302039A1 (SAMSUNG ELECTRONICS, published 2014)
